How the values were obtained:
[1] = target: RXFP1 LDLa-linker (human); assay: NMR titration; RXFP1 LDLa-linker titrated with truncated relaxin (Supp Fig. 5)
[2] = target: RXFP2(1-65) P4F (human); assay: NMR titration; 2D 1H-15N HSQC; increasing concentrations of titrant against 50 µM 15N-labelled RXFP2(1-65) P4F; 25 °C, 50 mM imidazole, 10 mM CaCl2, pH 6.8
[3] = target: RXFP2 S45A (human)
[4] = target: RXFP2 T44A (human)
[5] = target: RXFP2-F51A (human)
[6] = target: RXFP2-G42A (human)
[7] = target: Relaxin family peptide receptor 2 (RXFP2), wild type (human) (UniProt Q8WXD0)
[8] = target: Relaxin family peptide receptor 2 (RXFP2), wild type (human) (UniProt Q8WXD0); assay: europium-labelled ligand saturation binding on whole cells (time-resolved fluorescence); HEK293T cells transiently transfected with receptor; increasing concentrations of Eu-INSL3 or Eu-H2 relaxin with or without 1 µM unlabeled ligand, 1 h incubation; one-site binding curves
[9] = target: RXFP2 D43A (human); assay: as above
[10] = target: RXFP2 S45A (human); assay: as above
[11] = target: RXFP2 T44A (human); assay: as above
[12] = target: RXFP2 W47A (human); assay: as above
[13] = target: RXFP2-F51A (human); assay: as above
[14] = target: RXFP2-G42A (human); assay: as above
[15] = target: RXFP2-G46A (human); assay: as above

UniProt Q8WXD0, sequence (Q8WXD0 whole entry): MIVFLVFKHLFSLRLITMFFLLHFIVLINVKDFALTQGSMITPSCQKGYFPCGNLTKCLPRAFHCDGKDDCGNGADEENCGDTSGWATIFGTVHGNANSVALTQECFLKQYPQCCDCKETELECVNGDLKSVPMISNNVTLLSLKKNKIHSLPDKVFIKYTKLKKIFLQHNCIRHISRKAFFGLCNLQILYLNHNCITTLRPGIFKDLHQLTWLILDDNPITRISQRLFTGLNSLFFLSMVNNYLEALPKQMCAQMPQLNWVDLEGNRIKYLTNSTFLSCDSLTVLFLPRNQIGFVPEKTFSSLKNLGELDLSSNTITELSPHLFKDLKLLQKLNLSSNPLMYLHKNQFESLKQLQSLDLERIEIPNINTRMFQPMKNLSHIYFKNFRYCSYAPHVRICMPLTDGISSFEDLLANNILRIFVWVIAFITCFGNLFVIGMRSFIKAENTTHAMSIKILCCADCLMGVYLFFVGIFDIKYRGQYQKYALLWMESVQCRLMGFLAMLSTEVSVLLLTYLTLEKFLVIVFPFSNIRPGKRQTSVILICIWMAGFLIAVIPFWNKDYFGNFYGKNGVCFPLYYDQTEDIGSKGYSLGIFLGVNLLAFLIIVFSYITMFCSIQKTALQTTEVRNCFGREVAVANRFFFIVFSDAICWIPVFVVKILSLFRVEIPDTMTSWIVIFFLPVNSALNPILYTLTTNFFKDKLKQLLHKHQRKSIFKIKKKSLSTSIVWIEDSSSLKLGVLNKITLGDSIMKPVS

B5-29 [B-K9R,A-K9/17R] H2 relaxin (ligand)
Kd [1]: 90000 nM
Kd [2]: 330000 nM

Europium (Eu3+)-labelled H2 relaxin (ligand)
Emax: maximal cAMP response (pCRE beta-galactosidase reporter, HEK293T) to unlabelled H2 relaxin, max value based on 1 µM activation [3]: 100%
pEC50 of the cAMP response (pCRE beta-galactosidase reporter, HEK293T) to unlabelled H2 relaxin [3]: 9.03
Emax: maximal cAMP response (pCRE beta-galactosidase reporter, HEK293T) to unlabelled H2 relaxin, max value based on 1 µM activation [4]: 53%
pEC50 of the cAMP response (pCRE beta-galactosidase reporter, HEK293T) to unlabelled H2 relaxin [4]: 8.63
Emax: maximal cAMP response (pCRE beta-galactosidase reporter, HEK293T) to unlabelled H2 relaxin, max value based on 1 µM activation [5]: 18.8%
pEC50 of the cAMP response (pCRE beta-galactosidase reporter, HEK293T) to unlabelled H2 relaxin [5]: < 6
Emax: maximal cAMP response (pCRE beta-galactosidase reporter, HEK293T) to unlabelled H2 relaxin, max value based on 1 µM activation [6]: 75.2%
pEC50 of the cAMP response (pCRE beta-galactosidase reporter, HEK293T) to unlabelled H2 relaxin [6]: 7.98
Emax: maximal cAMP response (pCRE beta-galactosidase reporter, HEK293T) to unlabelled H2 relaxin, max value based on 1 µM activation [7]: 100%
pEC50 of the cAMP response (pCRE beta-galactosidase reporter, HEK293T) to unlabelled H2 relaxin [7]: 8.45
Kd [8]: 9.96 nM

Europium (Eu3+)-labelled INSL3 (ligand)
Emax: maximal cAMP response (pCRE beta-galactosidase reporter, HEK293T) to unlabelled INSL3 (% maximal RXFP2 activity) [3]: 92.2
pEC50 of the cAMP response (pCRE beta-galactosidase reporter, HEK293T) to unlabelled INSL3 [3]: 10.1
Emax: maximal cAMP response (pCRE beta-galactosidase reporter, HEK293T) to unlabelled INSL3 (% maximal RXFP2 activity) [4]: 98.7
pEC50 of the cAMP response (pCRE beta-galactosidase reporter, HEK293T) to unlabelled INSL3 [4]: 10.5
Emax: maximal cAMP response (pCRE beta-galactosidase reporter, HEK293T) to unlabelled INSL3 (% maximal RXFP2 activity) [5]: 39.8
pEC50 of the cAMP response (pCRE beta-galactosidase reporter, HEK293T) to unlabelled INSL3 [5]: 9.36
Emax: maximal cAMP response (pCRE beta-galactosidase reporter, HEK293T) to unlabelled INSL3 (% maximal RXFP2 activity) [6]: 39.5
pEC50 of the cAMP response (pCRE beta-galactosidase reporter, HEK293T) to unlabelled INSL3 [6]: 8.98
Emax: maximal cAMP response (pCRE beta-galactosidase reporter, HEK293T) to unlabelled INSL3 (% maximal RXFP2 activity) [7]: 100
pEC50 of the cAMP response (pCRE beta-galactosidase reporter, HEK293T) to unlabelled INSL3 [7]: 9.99
Kd [9]: 1.18 nM
Kd [10]: 1.05 nM
Kd [11]: 2.11 nM
Kd [12]: 1.5 nM
Kd [13]: 1.55 nM
Kd [14]: 1.93 nM
Kd [15]: 1.51 nM
Kd [8]: 1.07 nM

Reference: publication PMC5468325
